Measurements reported in patent US20120264815.

Molecular target: von Willebrand factor (VWF) (Homo sapiens) (UniProt P04275)
Test: filter
Details: 2'-F pyrimidines; pool after 4 rounds convergent SELEX

## GGGAGGACGAUGCGGNNNNNNNNNNNNNNNNNNNNNNNNNNNNNNNNNNNNNNNNCAGACGACUCGCUGAGGAUCC [VWF convergent SELEX round 4 pool (R9)]
  Kd: 4.5 nM
